# ± gives the uncertainty stated by the source.
# B1: Far upstream element-binding protein 1, residues 184 to 257; numbered along this chain, Q96AE4 (parent)
# chain: GNAVQEIMIPASKAGLVIGKGGETIKQLQERAGVKMVMIQDGPQNTGADKPLRITGDPYKVQQAKEMVLELIRD
# Variants of: B1
# Experiment: abundance fitness (aPCA) (normalised: wild type 0, dead -1); higher = more abundant; growth selection in yeast, the domain comes from the species named
# Details: Homo sapiens
row,Variant,abundance fitness
1,P10K,-0.287 ± 0.04
2,P10E,-0.364 ± 0.038
3,P10L,-0.922 ± 0.049
4,P10S,-0.367 ± 0.036
5,D74C,-0.128 ± 0.059
6,D74P,-0.016 ± 0.041
7,D74R,-0.089 ± 0.039
8,D74Q,-0.059 ± 0.061
9,D74T,-0.076 ± 0.042
10,D74F,-0.311 ± 0.063
11,D74G,0.008 ± 0.034
12,I39G,-0.028 ± 0.027
13,I39L,-0.008 ± 0.032
14,I39P,-0.061 ± 0.035
15,I39C,-0.051 ± 0.042
16,I39F,0.035 ± 0.061
17,I39E,-0.001 ± 0.036
18,I39D,-0.105 ± 0.045
19,I39T,-0.088 ± 0.036
20,V34K,-0.946 ± 0.074
21,V34A,-0.153 ± 0.033
22,V34E,-0.753 ± 0.046
23,V34H,-0.87 ± 0.096
24,M38I,-0.036 ± 0.048

row,Variant,abundance fitness
1,M38R,-0.444 ± 0.029
2,M38W,-0.032 ± 0.034
3,M38F,0.037 ± 0.052
4,Q62G,-0.03 ± 0.027
5,Q62H,-0.069 ± 0.047
6,Q62W,-0.114 ± 0.035
7,Q62C,-0.037 ± 0.041
8,A32C,0.006 ± 0.043
9,A32D,-0.412 ± 0.055
10,A32Q,-0.077 ± 0.04
11,K60Y,-0.233 ± 0.056
12,K60N,0.029 ± 0.047
13,K60A,-0.036 ± 0.031
14,K60C,0.002 ± 0.039
15,P51W,-0.066 ± 0.037
16,P51Q,-0.108 ± 0.041
17,P51F,-0.077 ± 0.042
18,P51K,-0.03 ± 0.039
19,P51L,-0.057 ± 0.03
20,R31G,-0.106 ± 0.028
21,R31Y,-0.168 ± 0.056
22,R31K,0.016 ± 0.039
23,R31F,-0.155 ± 0.05
24,Q5E,0.128 ± 0.034

row,Variant,abundance fitness
1,Q5L,-0.029 ± 0.029
2,Q5G,-0.036 ± 0.026
3,Q5F,-0.063 ± 0.051
4,Q5T,0.013 ± 0.031
5,Q5H,-0.108 ± 0.058
6,I25F,-0.158 ± 0.05
7,I25C,-0.267 ± 0.049
8,I25T,-0.361 ± 0.039
9,I25V,-0.125 ± 0.034
10,I25H,-0.324 ± 0.057
11,I25G,-0.624 ± 0.032
12,G19L,-0.598 ± 0.039
13,G19Y,-0.685 ± 0.085
14,G19N,-0.278 ± 0.059
15,G19M,-0.551 ± 0.053
16,G19F,-0.519 ± 0.069
17,G19I,-0.931 ± 0.11
18,T46I,-0.062 ± 0.046
19,T46W,-0.136 ± 0.035
20,T46S,-0.04 ± 0.032
21,T46Q,-0.022 ± 0.037
22,T46R,-0.046 ± 0.027
23,T46N,-0.074 ± 0.05
24,K50V,-0.005 ± 0.031

row,Variant,abundance fitness
1,K50I,-0.068 ± 0.048
2,K50A,-0.027 ± 0.033
3,L71F,-0.078 ± 0.045
4,L71K,-0.001 ± 0.041
5,L71G,-0.282 ± 0.027
6,L71Y,-0.225 ± 0.055
7,L71D,-0.389 ± 0.046
8,L71T,-0.066 ± 0.035
9,L71C,-0.048 ± 0.041
10,L71W,-0.189 ± 0.033
11,A64N,-0.772 ± 0.073
12,A64F,-0.754 ± 0.064
13,A64V,-0.262 ± 0.032
14,A64L,-0.839 ± 0.043
15,A64E,-0.694 ± 0.041
16,A64P,-0.784 ± 0.048
17,A64G,-0.051 ± 0.027
18,A64M,-0.469 ± 0.042
19,A64T,-0.296 ± 0.037
20,V37C,0.009 ± 0.04
21,V37M,-0.07 ± 0.042
22,V37H,-0.178 ± 0.058
23,V61S,-0.427 ± 0.033
24,V61G,-0.627 ± 0.03

row,Variant,abundance fitness
1,V61M,-0.236 ± 0.048
2,V61I,-0.091 ± 0.05
3,V61K,-0.847 ± 0.06
4,R53W,-0.205 ± 0.037
5,R53L,-0.075 ± 0.033
6,R53I,-0.049 ± 0.057
7,R53T,0.008 ± 0.047
8,R53P,-0.941 ± 0.062
9,P58H,-0.003 ± 0.068
10,P58M,-0.014 ± 0.04
11,P58R,0 ± 0.027
12,A14T,0.035 ± 0.035
13,A14F,-0.022 ± 0.051
14,A14M,0.033 ± 0.043
15,A14I,0.039 ± 0.064
16,A14G,-0.193 ± 0.032
17,A14H,0.034 ± 0.049
18,S12F,-0.207 ± 0.062
19,S12I,-0.032 ± 0.052
20,S12G,0.002 ± 0.027
21,S12Q,-0.077 ± 0.04
22,M67T,-0.116 ± 0.035
23,M67P,-0.455 ± 0.04
24,M67D,-0.075 ± 0.042

row,Variant,abundance fitness
1,M67C,-0.187 ± 0.04
2,M67H,-0.078 ± 0.047
3,M67N,-0.073 ± 0.051
4,M67Y,-0.088 ± 0.046
5,M67A,-0.03 ± 0.031
6,V17Y,-0.428 ± 0.061
7,V17W,-0.294 ± 0.036
8,V17C,-0.272 ± 0.046
9,V17R,-0.687 ± 0.033
10,I54W,-1.06 ± 0.073
11,I54F,-0.175 ± 0.058
12,I54P,-1.08 ± 0.093
13,P43Q,-0.057 ± 0.045
14,P43S,0.04 ± 0.038
15,P43D,-0.055 ± 0.05
16,P43E,-0.01 ± 0.04
17,D41F,-0.189 ± 0.055
18,D41G,-0.009 ± 0.026
19,D41K,-0.007 ± 0.04
20,G22Q,-0.075 ± 0.04
21,G22H,-0.127 ± 0.057
22,G22L,-0.157 ± 0.033
23,G22K,-0.14 ± 0.038
24,G22V,-0.261 ± 0.034

row,Variant,abundance fitness
1,G22R,-0.116 ± 0.027
2,G22S,-0.114 ± 0.033
3,V4K,0.027 ± 0.037
4,V4G,-0.146 ± 0.026
5,V4M,0.11 ± 0.037
6,V4L,-0.065 ± 0.03
7,V4E,0.051 ± 0.034
8,Q63R,-0.026 ± 0.026
9,Q63C,0.013 ± 0.045
10,Q63P,-0.408 ± 0.036
11,I18Q,-0.058 ± 0.035
12,I18A,0.038 ± 0.031
13,I18D,-0.152 ± 0.045
14,D49F,-0.081 ± 0.053
15,D49C,-0.057 ± 0.048
16,D49Q,-0.096 ± 0.043
17,D49S,-0.077 ± 0.032
18,E66K,-0.007 ± 0.032
19,E66G,-0.046 ± 0.027
20,E66R,-0.081 ± 0.026
21,E66I,-0.224 ± 0.048
22,E66N,-0.048 ± 0.043
23,E66T,-0.03 ± 0.034
